We go through five molecules from publication doi:10.1101/2023.08.15.553295 (bioRxiv, 2023).

Ends that are not written are not given here. A value given as a limit tells only on which side of the number the result lay.

The target of test [1] is T1, DCAF12 (Δ1-78) (human, UniProt Q5T6F0 79-453). Description: fluorescence polarisation. (In general: In fluorescence polarisation assays a small probe gives low polarisation when free and higher when bound to something large.)
Test [2] concerns the target biotinylated DCAF12 (Δ1-78) (human, UniProt Q5T6F0 79-453, biotin). As to the kind of experiment: SPR. Background: In SPR one partner is held on a chip, and binding of the other changes the refractive index at the surface.
The next test has as its target HaloTag-DCAF12 wild type (human, UniProt Q5T6F0 1-453). As to the kind of experiment: FRET or BRET. (In BRET a luciferase serves as donor, and the signal depends on an acceptor being close.)
The target of test [3] is T1, DCAF12 (Δ1-78). Description: fluorescence polarisation. This is another data set of the same source.

T1 sequence (Q5T6F0 79-453, stated change not applied): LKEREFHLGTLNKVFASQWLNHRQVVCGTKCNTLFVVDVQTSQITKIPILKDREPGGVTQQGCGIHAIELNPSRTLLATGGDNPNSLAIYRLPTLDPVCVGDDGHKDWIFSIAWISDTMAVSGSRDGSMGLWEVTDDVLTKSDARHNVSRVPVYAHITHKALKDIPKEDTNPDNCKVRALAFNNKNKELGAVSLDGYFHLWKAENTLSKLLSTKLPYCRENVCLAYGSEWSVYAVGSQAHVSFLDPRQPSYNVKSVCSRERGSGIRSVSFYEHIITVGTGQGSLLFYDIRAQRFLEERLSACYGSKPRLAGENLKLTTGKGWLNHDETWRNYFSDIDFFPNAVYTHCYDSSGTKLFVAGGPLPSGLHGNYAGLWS
Sequence of biotinylated DCAF12 (Δ1-78) (Q5T6F0 79-453, stated change not applied): as above
Sequence of HaloTag-DCAF12 wild type (Q5T6F0 whole entry): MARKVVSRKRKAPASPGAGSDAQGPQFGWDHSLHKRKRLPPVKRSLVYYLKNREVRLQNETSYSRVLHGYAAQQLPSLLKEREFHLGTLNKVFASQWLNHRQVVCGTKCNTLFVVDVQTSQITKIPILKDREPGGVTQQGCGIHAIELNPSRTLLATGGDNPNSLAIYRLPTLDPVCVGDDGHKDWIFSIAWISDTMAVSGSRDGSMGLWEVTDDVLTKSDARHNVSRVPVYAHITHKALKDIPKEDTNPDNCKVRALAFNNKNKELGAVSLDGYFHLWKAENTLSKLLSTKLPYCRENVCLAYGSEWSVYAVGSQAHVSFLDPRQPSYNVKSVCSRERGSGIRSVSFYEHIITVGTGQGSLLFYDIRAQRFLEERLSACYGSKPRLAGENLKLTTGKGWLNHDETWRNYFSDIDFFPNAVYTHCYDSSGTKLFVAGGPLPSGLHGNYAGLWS

Consider LHEWVLREGEE [unlabeled MAGEA3 C-terminal degron peptide], for which the binding result (with DCAF12 (Δ1-78) [1]; in test [2]) was “binds” throughout.

For IRKPGESEE [unlabeled CCT5 C-terminal degron peptide], the binding result (in the test with DCAF12 (Δ1-78) [1]; in test [2]) was “binds” in each case.

B1: NanoLuc-MAGEA3 full length (natural protein)
chain: MPLEQRSQHCKPEEGLEARGEALGLVGAQAPATEEQEAASSSSTLVEVTLGEVPAAESPDPPQSPQGASSLPTTMNYPLWSQSYEDSSNQEEEGPSTFPDLESEFQAALSRKVAELVHFLLLKYRAREPVTKAEMLGSVVGNWQYFFPVIFSKASSSLQLVFGIELMEVDPIGHLYIFATCLGLSYDGLLGDNQIMPKAGLLIIVLAIIAREGDCAPEEKIWEELSVLEVFEGREDSILGDPKKLLTQHFVQENYLEYRQVPGSDPACYEFLWGPRALVETSYVKVLHHMVKISGGPHISYPPLHEWVLREGEE
Regarding B1, in the test with HaloTag-DCAF12 wild type, the “BRET signal, fold over the negative control” value amounted to 22 fold.

A word on the Kd: it is the concentration at which binding is half-saturated. High values mean weaker binding, low ones tighter binding. In the test with DCAF12 (Δ1-78) [3], IRKPGESEE (also: FITC label, position not given here) [FITC-labeled CCT5 C-terminal degron peptide] returned a Kd of less than 370 nM.

Take LHEWVLREGEE (also: FITC label, position not given here) [FITC-labeled MAGEA3 C-terminal degron peptide]: in the test with DCAF12 (Δ1-78) [3], the Kd was less than 370 nM.
